Each block holds one substance with its values, some of them ahead of it. No end group written: not given here.
Key:
HLA-DRB1*01:01 [1] = target: T1, HLA-DRB1*01:01 (Homo sapiens, UniProt P01903+P01911, A100R/D57E/F55L/F60I/F76Y/I96L/L162R/M171V/P40L/Q125E/R42F/V115G/Y59C); test: Peptide binding ELISA (L243 capture, streptavidin-peroxidase); details: thioredoxin-fused biotinylated MBP fragments 750 nM, HLA-DR 150 nM, overnight, 37°C
HLA-DRB1*01:01 [2] = target: T1, HLA-DRB1*01:01; test: Real-time ELISA kinetics of peptide loading (CLIP exchange) with or without HLA-DM; type: binding; details: thioredoxin-fused chimeric peptides with C-terminal part of MBP151-164 or MBP88-100, 150 nM, HLA-DR 150 nM, with or without HLA-DM 150 nM
HLA-DRB1*01:01 [3] = target: T1, HLA-DRB1*01:01; test: Kinetic competition assay with Trx-[HA]bio in presence of HLA-DM; type: binding; details: HLA-DRB1*01:01 150 nM, HLA-DM 150 nM, Trx-[HA]bio 150 nM, competitor 0-1 μM, 0-8 h
Experimental: (§1) In a competition assay, kinetic experiments were carried out as described above. Kinetics were measured in the presence of increasing concentrations (0, 30, 100, 300, and 1,000 nM) of thioredoxin-fused HA, pp65, MBP, or chimeric peptides at timepoints 8, 6, 4, 2, and 0 h. Thioredoxin without any peptide was used as a control. ELISA was performed as done previously. All experiments were carried out in triplicates.

HLA-DRB1*15:01 [4] = target: T2, HLA-DRB1*15:01 (Homo sapiens, UniProt P01903+P01911); test: Peptide binding ELISA (L243 capture, streptavidin-peroxidase); details: thioredoxin-fused biotinylated MBP fragments 750 nM, HLA-DR 150 nM, overnight, 37°C
Experimental: DR/peptide complexes were then captured on the ELISA plate with immobilized L243 mAb (5 μg/ml in PBS) and blocked with 1% milk in PBS. HLA-DR-bound biotinylated peptide was quantitated with streptavidin-peroxidase (50 μl in PBST), using 3,3′,5,5′-tetramethylbenzidine (50 μl) as a substrate and stopping with 10% phosphoric acid (50 μl). ELISA was performed using standard protocol (https://www.abcam.com/protocols/sandwich-elisa-protocol).

HLA-DR1 = details: direct binding to purified molecules; cited from earlier work
Text: (§2) MS therapeutic glatiramer acetate (GA) or Copaxone is a 40–100 amino acids polypeptide of a random sequence composed from alanine, lysine, glutamate, and tyrosine at a molar ratio of 4.5:3.6:1.5:1, respectively, that with high affinity binds directly to the purified HLA-DR1, -DR2, and -DR4 molecules ([45]). Combinatorial chemistry, which lays in the basis of GA, may result in assembling of multiple HLA class II epitopes, that at least in part may be not simply thermodynamically but rather kinetically preferable. Concluding our data provide novel vector of optimization of altered peptide ligand ...

HLA-DR2 = details: direct binding to purified molecules; cited from earlier work
Text: as §2

HLA-DR4 = details: direct binding to purified molecules; cited from earlier work
Text: as §2

HLA-DRB1*15:01 [5] = target: T2, HLA-DRB1*15:01; test: Real-time ELISA kinetics of peptide loading (CLIP exchange) with or without HLA-DM; type: binding; details: thioredoxin-fused peptides 150 nM, HLA-DR 150 nM, HLA-DM 150 nM
Experimental: A real-time ELISA assay was used to assess kinetics of peptide exchange on HLA-DR, catalyzed by HLA-DM. The linker connecting the CLIP peptide to the N-terminus of the HLA-DR β chain was cut with thrombin (1 h, 20 U/mg, at room temperature). DR-CLIP complexes (150 nM) were incubated with or without HLA-DM (150 nM, which was estimated as minimal concentration for maximal rate, see Figure S1) in the presence of biotinylated either synthetic or thioredoxin-fused HA, pp65, MBP, and chimeric peptides (150 nM, which was experimentally estimated as minimal concentration required for reliable detection), for 7, 5, 3, 1, and 0 h. Each time point was mixed separately starting from the end of incubation time (7 h) every 2 h, afterwards all time points were loaded into the plate.

HLA-DRB1*15:01 [6] = target: T2, HLA-DRB1*15:01; test: Kinetic competition assay with Trx-[pp65]bio in presence of HLA-DM; type: binding; details: HLA-DRB1*15:01 150 nM, HLA-DM 150 nM, Trx-[pp65]bio 150 nM, competitor 0-1 μM
Experimental: as §1

HLA-DRB1*15:01 [7] = target: T2, HLA-DRB1*15:01; test: 18 h competition assay with Trx-[pp65]bio; type: binding; details: HLA-DRB1*15:01 150 nM, Trx-[pp65]bio 150 nM, competitor 7.8 nM-1 μM
Experimental: In a competition assay, biotinylated thioredoxin-fused HA and pp65 peptides (150 nM) were incubated with HLA-DR in the presence of HA, pp65, MBP or chimeric peptides (1,000, 500, 250, 125, 62.5, 31.2, 15.6, and 7.8 nM) for 18 h. Whole procedure was the same as described above.

Binding of MBP epitope library to HLA-DRB1*01:01 (HLA-DRB1*01:01 [1]): less efficiently bound
Substance: MBP65−92: thioredoxin-fused MBP fragment of the MBP epitope library ({thioredoxin-(SGGGG)3S}-ARTAHYGSLPQKSHGRTQDENPVVHFFK; also: biotin (EZ-Link Sulfo-NHS-LC-biotin), places not given here, His-tag, end not given here)

Capable of efficiently binding HLA-DRB1*01:01 (kinetic assay) (HLA-DRB1*01:01 [2]): none
Concentration up to which the peptide failed to compete with Trx-[HA]bio (HLA-DRB1*01:01 [3]): > 1 µM
Substance: Trx-[MBP151−164]: thioredoxin-fused MBP151−164 ({thioredoxin-(SGGGG)3S}-LSKIFKLGGRDSRS; also: biotin (EZ-Link Sulfo-NHS-LC-biotin), places not given here, His-tag, end not given here)

Binding of MBP epitope library to HLA-DRB1*15:01 (HLA-DRB1*15:01 [4]): significantly diminished efficiency
Substance: MBP25−54: thioredoxin-fused MBP fragment of the MBP epitope library (ARHGFLPRHRDTGILDSIGRFFGGDRGAPK; not fully specified (N-terminus); also: fused to thioredoxin via (SGGGG)3S linker at N-terminus, His-tag, position not given here, biotinylated with Sulfo-NHS-LC-biotin, site not given here)

Substance: glatiramer acetate
Binding to purified HLA-DR1 (HLA-DR1): high affinity
Binding to purified HLA-DR2 (HLA-DR2): high affinity
Binding to purified HLA-DR4 (HLA-DR4): high affinity

Binding of MBP epitope library to HLA-DRB1*01:01 (HLA-DRB1*01:01 [1]): less efficiently bound
Binding of MBP epitope library to HLA-DRB1*15:01 (HLA-DRB1*15:01 [4]): significantly diminished efficiency
Substance: MBP130−156: thioredoxin-fused MBP fragment of the MBP epitope library (GRASDYKSAHKGFKGVDAQGTLSKIFK; not fully specified (N-terminus); also: fused to thioredoxin via (SGGGG)3S linker at N-terminus, His-tag, position not given here, biotinylated with Sulfo-NHS-LC-biotin, site not given here)

Rate of loading on HLA-DRB1*15:01 with or without HLA-DM (HLA-DRB1*15:01 [5]): similarly high rate
Concentration from which binding of Trx-[pp65]bio was decreased (HLA-DRB1*15:01 [6]): 100 nM
Thermodynamic inhibition capacity in comparison with Trx-[pp65] and Trx-[pp65-MBP91-97] (HLA-DRB1*15:01 [7]): up to half of order of magnitude greater
Substance: Trx-[MBP85−97]: thioredoxin-fused MBP85−97 (NPVVHFFKNIVTP; not fully specified (N-terminus); also: fused to thioredoxin via (SGGGG)3S linker at N-terminus, His-tag, position not given here, biotinylated with Sulfo-NHS-LC-biotin, site not given here)

Capable of efficiently binding HLA-DRB1*01:01 (kinetic assay) (HLA-DRB1*01:01 [2]): none
Substance: Trx-[MBP88−100]: thioredoxin-fused MBP88−100 ({thioredoxin-(SGGGG)3S}-VHFFKNIVTPRTP; also: biotin (EZ-Link Sulfo-NHS-LC-biotin), places not given here, His-tag, end not given here)

— paper PMC6978714, “Protective Allele for Multiple Sclerosis HLA-DRB1*01:01 Provides Kinetic Discrimination of Myelin and Exogenous Antigenic Peptides” (Frontiers in Immunology, 2020)
